# Assay results published in IntAct's records for PubMed 22020126.
# B1: Histone acetyltransferase ESA1 (Saccharomyces cerevisiae), Q08649 (parent)
# chain: MSHDGKEEPGIAKKINSVDDIIIKCQCWVQKNDEERLAEILSINTRKAPPKFYVHYVNYNKRLDEWITTDRINLDKEVLYPKLKATDEDNKKQKKKKATNTSETPQDSLQDGVDGFSRENTDVMDLDNLNVQGIKDENISHEDEIKKLRTSGSMTQNPHEVARVRNLNRIIMGKYEIEPWYFSPYPIELTDEDFIYIDDFTLQYFGSKKQYERYRKKCTLRHPPGNEIYRDDYVSFFEIDGRKQRTWCRNLCLLSKLFLDHKTLYYDVDPFLFYCMTRRDELGHHLVGYFSKEKESADGYNVACILTLPQYQRMGYGKLLIEFSYELSKKENKVGSPEKPLSDLGLLSYRAYWSDTLITLLVEHQKEITIDEISSMTSMTTTDILHTAKTLNILRYYKGQHIIFLNEDILDRYNRLKAKKRRTIDPNRLIWKPPVFTASQLRFAW
# B2: Histone acetyltransferase KAT8 (Homo sapiens), Q9H7Z6 (parent)
# chain: MAAQGAAAAVAAGTSGVAGEGEPGPGENAAAEGTAPSPGRVSPPTPARGEPEVTVEIGETYLCRRPDSTWHSAEVIQSRVNDQEGREEFYVHYVGFNRRLDEWVDKNRLALTKTVKDAVQKNSEKYLSELAEQPERKITRNQKRKHDEINHVQKTYAEMDPTTAALEKEHEAITKVKYVDKIHIGNYEIDAWYFSPFPEDYGKQPKLWLCEYCLKYMKYEKSYRFHLGQCQWRQPPGKEIYRKSNISVYEVDGKDHKIYCQNLCLLAKLFLDHKTLYFDVEPFVFYILTEVDRQGAHIVGYFSKEKESPDGNNVACILTLPPYQRRGYGKFLIAFSYELSKLESTVGSPEKPLSDLGKLSYRSYWSWVLLEILRDFRGTLSIKDLSQMTSITQNDIISTLQSLNMVKYWKGQHVICVTPKLVEEHLKSAQYKKPPITVDSVCLKWAPPKHKQVKLSKK
# Variants of: B1
# Conditions: with h4_yeast HHF1, P02309
row,Variant,effect of a mutation on the interaction
1,MSHDGKEEPGIAKKINSVDDIIIKCQCWVQKNDEERLAEILSINTRKAPPKFYVHYVNYNKRLDEWITTDRINLDKEVLYPKLKATDEDNKKQKKKKATNTSETPQDSLQDGVDGFSRENTDVMDLDNLNVQGIKDENISHEDEIKKLRTSGSMTQNPHEVARVRNLNRIIMGKYEIEPWYFSPYPIELTDEDFIYIDDFTLQYFGSKKQYERYRKKCTLRHPPGNEIYRDDYVSFFEIDGRKQRTWCRNLCLLSKLFLDHRTLYYDVDPFLFYCMTRRDELGHHLVGYFSKEKESADGYNVACILTLPQYQRMGYGKLLIEFSYELSKKENKVGSPEKPLSDLGLLSYRAYWSDTLITLLVEHQKEITIDEISSMTSMTTTDILHTAKTLNILRYYKGQHIIFLNEDILDRYNRLKAKKRRTIDPNRLIWKPPVFTASQLRFAW [K262R],disrupting interaction

# Variants of: B1
# Conditions: with h4_yeast HHF1, P02309
# Remark: another data set of the same source
row,Variant,effect of a mutation on the interaction
1,MSHDGKEEPGIAKKINSVDDIIIKCQCWVQKNDEERLAEILSINTRKAPPKFYVHYVNYNKRLDEWITTDRINLDKEVLYPKLKATDEDNKKQKKKKATNTSETPQDSLQDGVDGFSRENTDVMDLDNLNVQGIKDENISHEDEIKKLRTSGSMTQNPHEVARVRNLNRIIMGKYEIEPWYFSPYPIELTDEDFIYIDDFTLQYFGSKKQYERYRKKCTLRHPPGNEIYRDDYVSFFEIDGRKQRTWCRNLCLLSKLFLDHATLYYDVDPFLFYCMTRRDELGHHLVGYFSKEKESADGYNVACILTLPQYQRMGYGKLLIEFSYELSKKENKVGSPEKPLSDLGLLSYRAYWSDTLITLLVEHQKEITIDEISSMTSMTTTDILHTAKTLNILRYYKGQHIIFLNEDILDRYNRLKAKKRRTIDPNRLIWKPPVFTASQLRFAW [K262A],disrupting interaction

# Variants of: B1
# Conditions: with h4_yeast HHF1, P02309
# Remark: another data set of the same source
row,Variant,effect of a mutation on the interaction
1,MSHDGKEEPGIAKKINSVDDIIIKCQCWVQKNDEERLAEILSINTRKAPPKFYVHYVNYNKRLDEWITTDRINLDKEVLYPKLKATDEDNKKQKKKKATNTSETPQDSLQDGVDGFSRENTDVMDLDNLNVQGIKDENISHEDEIKKLRTSGSMTQNPHEVARVRNLNRIIMGKYEIEPWYFSPYPIELTDEDFIYIDDFTLQYFGSKKQYERYRKKCTLRHPPGNEIYRDDYVSFFEIDGRKQRTWCRNLCLLSKLFLDHQTLYYDVDPFLFYCMTRRDELGHHLVGYFSKEKESADGYNVACILTLPQYQRMGYGKLLIEFSYELSKKENKVGSPEKPLSDLGLLSYRAYWSDTLITLLVEHQKEITIDEISSMTSMTTTDILHTAKTLNILRYYKGQHIIFLNEDILDRYNRLKAKKRRTIDPNRLIWKPPVFTASQLRFAW [K262Q],decreasing interaction

# Variants of: B2
# Conditions: with h4_yeast HHF1, P02309
row,Variant,effect of a mutation on the interaction
1,MAAQGAAAAVAAGTSGVAGEGEPGPGENAAAEGTAPSPGRVSPPTPARGEPEVTVEIGETYLCRRPDSTWHSAEVIQSRVNDQEGREEFYVHYVGFNRRLDEWVDKNRLALTKTVKDAVQKNSEKYLSELAEQPERKITRNQKRKHDEINHVQKTYAEMDPTTAALEKEHEAITKVKYVDKIHIGNYEIDAWYFSPFPEDYGKQPKLWLCEYCLKYMKYEKSYRFHLGQCQWRQPPGKEIYRKSNISVYEVDGKDHKIYCQNLCLLAKLFLDHRTLYFDVEPFVFYILTEVDRQGAHIVGYFSKEKESPDGNNVACILTLPPYQRRGYGKFLIAFSYELSKLESTVGSPEKPLSDLGKLSYRSYWSWVLLEILRDFRGTLSIKDLSQMTSITQNDIISTLQSLNMVKYWKGQHVICVTPKLVEEHLKSAQYKKPPITVDSVCLKWAPPKHKQVKLSKK [K274R],disrupting interaction

# Variants of: B2
# Conditions: with h4_yeast HHF1, P02309
# Remark: another data set of the same source
row,Variant,effect of a mutation on the interaction
1,MAAQGAAAAVAAGTSGVAGEGEPGPGENAAAEGTAPSPGRVSPPTPARGEPEVTVEIGETYLCRRPDSTWHSAEVIQSRVNDQEGREEFYVHYVGFNRRLDEWVDKNRLALTKTVKDAVQKNSEKYLSELAEQPERKITRNQKRKHDEINHVQKTYAEMDPTTAALEKEHEAITKVKYVDKIHIGNYEIDAWYFSPFPEDYGKQPKLWLCEYCLKYMKYEKSYRFHLGQCQWRQPPGKEIYRKSNISVYEVDGKDHKIYCQNLCLLAKLFLDHATLYFDVEPFVFYILTEVDRQGAHIVGYFSKEKESPDGNNVACILTLPPYQRRGYGKFLIAFSYELSKLESTVGSPEKPLSDLGKLSYRSYWSWVLLEILRDFRGTLSIKDLSQMTSITQNDIISTLQSLNMVKYWKGQHVICVTPKLVEEHLKSAQYKKPPITVDSVCLKWAPPKHKQVKLSKK [K274A],disrupting interaction
